The record followed here is US20190040115A1 (IMMATICS BIOTECHNOLOGIES, published 2019).

This assay addresses T1, HLA-A*02:01 (human).
T1 construct: captured on streptavidin plates; also called peptide-receptive MHC molecules
Description: UV peptide exchange ELISA (anti-b2m); yield grade: + >10%, ++ >20%, +++ >50, ++++ >75%. An excerpt:
Candidate peptides for T cell based therapies according to the present invention were further tested for their MHC binding capacity (affinity). The individual peptide-MHC complexes were produced by UV-ligand exchange, where a UV-sensitive peptide is cleaved upon UV-irradiation, and exchanged with the peptide of interest as analyzed. Only peptide candidates that can effectively bind and stabilize the peptide-receptive MHC molecules prevent dissociation of the MHC complexes. To determine the yield of the exchange reaction, an ELISA was performed based on the detection of the light chain (β2m) of stabilized MHC complexes. The assay was performed as generally described in Rodenko et al. (Rodenko et al., 2006).
96 well MAXISorp plates (NUNC) were coated over night with 2 ug/ml streptavidin in PBS at room temperature, washed 4× and blocked for 1 h at 37° C. in 2% BSA containing blocking buffer. Refolded HLA-A*02:01/MLA-001 monomers served as standards, covering the range of 15-500 ng/ml. Peptide-MHC monomers of the UV-exchange reaction were diluted 100 fold in blocking buffer. Samples were incubated for 1 h at 37° C., washed four times, incubated with 2 ug/ml HRP conjugated anti-β2m for 1 h at 37° C., washed again and detected with TMB solution that is stopped with […]. Absorption was measured at 450 nm. Candidate peptides that show a high exchange yield (preferably higher than 50%, most preferred higher than 75%) are generally preferred for a generation and production of antibodies or fragments thereof, and/or T cell receptors or fragments thereof, as they show sufficient avidity to the MHC molecules and prevent dissociation of the MHC complexes.
In general terms: ELISA stands for enzyme-linked immunosorbent assay.
For the molecule FLYTYIAKV, the peptide exchange yield was in the range of 50 to 75%.

Take VLNEYFHNV: the peptide exchange yield was greater than 75%.

EVISKLYAV: the peptide exchange yield fell in the range of 50 to 75%.

As to VLMEMSYRL, the peptide exchange yield lay within 50 to 75%.

ALLSQDFEL: the peptide exchange yield is greater than 75%.

On to SVNGFISTL, for which the peptide exchange yield lay in the range of 20 to 50%.

As to LLSEIEEHL, the peptide exchange yield was greater than 75%.

As for KIEDLIKYL, the peptide exchange yield was in the range of 50 to 75%.

As to HLDQIFQNL, the peptide exchange yield lay within 20 to 50%.

For FLDSEVSEL, the peptide exchange yield is 50 to 75%.

Turning to ILDEPTNHL, the peptide exchange yield is 20 to 50%.

Turning to LLPDPLYSL, the peptide exchange yield lay in the range of 20 to 50%.

Consider LLEPFVHQV, for which the peptide exchange yield was greater than 75%.

Consider LLDDPTNAHFI, for which the peptide exchange yield was 50 to 75%.

As to ALDSDPVGL, the peptide exchange yield was in the range of 50 to 75%.

On to HLIGWTAFL, for which the peptide exchange yield is greater than 75%.

Take ALADLQEAV: the peptide exchange yield was greater than 75%.

Regarding KLLELQELVL, the peptide exchange yield is greater than 75%.

Take KTWDQVPFSV: the peptide exchange yield is greater than 75%.

FLPRKFPSL: the peptide exchange yield is greater than 75%.

As to SLYSYFQKV, the peptide exchange yield is greater than 75%.

Turning to FLNLFNHTL, the peptide exchange yield was greater than 75%.

In the case of KILPDLNTV, the peptide exchange yield was greater than 75%.

On to VLYNESLQL, for which the peptide exchange yield is greater than 75%.

As for ILDEGHILQL, the peptide exchange yield is greater than 75%.

Turning to FLPFLTTEV, the peptide exchange yield was greater than 75%.

As to HLDEARTLL, the peptide exchange yield is greater than 75%.

As to LLPELRDWGV, the peptide exchange yield fell in the range of 50 to 75%.

FMYNFQLVTL: the peptide exchange yield fell in the range of 20 to 50%.

As to FVYGEPREL, the peptide exchange yield was in the range of 50 to 75%.

Regarding FIDPEQIQV, the peptide exchange yield is 50 to 75%.

In the case of STLHLVLRL, the peptide exchange yield was 50 to 75%.

For the molecule KLGFGTGVNVYL, the peptide exchange yield was greater than 75%.

SAAEPTPAV: the peptide exchange yield lay in the range of 50 to 75%.

For the molecule ALFAAGANV, the peptide exchange yield lay within 50 to 75%.

Turning to GLDIITNKV, the peptide exchange yield lay within 50 to 75%.

Turning to LLSNTVSTL, the peptide exchange yield was in the range of 50 to 75%.

With VLFKDPVSV, the peptide exchange yield is greater than 75%.

With KVPEIEVTV, the peptide exchange yield is greater than 75%.

As to YLINFEIRSL, the peptide exchange yield is greater than 75%.

For the molecule IVDNTTMQL, the peptide exchange yield is 50 to 75%.

KMVGDVTGA: the peptide exchange yield fell in the range of 50 to 75%.

Turning to VLFGAVITGA, the peptide exchange yield is greater than 75%.

As for FLETNVPLL, the peptide exchange yield lay within 50 to 75%.

ALPPPPASI: the peptide exchange yield is 50 to 75%.

With SLVAILHLL, the peptide exchange yield lay within 50 to 75%.

With FLGDPPPGL, the peptide exchange yield is 50 to 75%.

In the case of LLDPTNVFI, the peptide exchange yield was greater than 75%.

As for LLKDSIVQL, the peptide exchange yield lay in the range of 50 to 75%.

Turning to TLKEYLESL, the peptide exchange yield fell in the range of 50 to 75%.

With VMSSTLYTV, the peptide exchange yield is greater than 75%.

On to QLYNQIIKL, for which the peptide exchange yield is greater than 75%.

For the molecule NMMSGISSV, the peptide exchange yield lay within 50 to 75%.

For FLLEQEKTQAL, the peptide exchange yield is greater than 75%.

Take GLDSGFHSV: the peptide exchange yield is greater than 75%.

Take TLWYVPLSL: the peptide exchange yield is greater than 75%.

As to TLLHFLAEL, the peptide exchange yield was greater than 75%.

In the case of VLFPMDLAL, the peptide exchange yield lay within 50 to 75%.

With VLKADVVLL, the peptide exchange yield was in the range of 20 to 50%.

Turning to ILDDVAMVL, the peptide exchange yield lay within 50 to 75%.

In the case of SLLPTEQPRL, the peptide exchange yield was in the range of 50 to 75%.
